This assay has as its target transient receptor potential (TRP) channels. In words: SPR; plasmonic tilted fiber Bragg grating (fiber-optic SPR) probe; TRP immobilised on the 50 nm gold film through 11-mercaptoundecanoic acid and EDC/NHS; CaM (0.1 nM to 10 uM) injected in a microfluidic capillary; 50 mM Tris-HCl, 100 mM NaCl, 1 mM DTT, 1 mM CaCl2, pH 7.5; read-out is the intensity change of a cladding mode. (In SPR one partner is held on a chip, and binding of the other changes the refractive index at the surface.)

In the case of “calmodulin (from UniProt P0DP23 1-149) (natural protein)”, the intensity change of the selected cladding mode at 1 uM CaM, 30 min came to 1.7 dB.

The values above are taken from article PMC8231783.
